How the values were obtained:
[1] = target: T1, human PVRIG (Poliovirus Receptor Related Immunoglobulin Domain Containing Protein), full length on cells (human, UniProt Q6DKI7 41-326); experiment: FACS on CD4+ T cells, days 3-6 of activation
T1 construct: whole, on cells; Over-expressed on HEK293 (some pools flag-tagged) or endogenous on Jurkat, CA46, T cells, NK cells, TILs; also called hPVRIG; HEK hPVRIG
T1 sequence (looked up): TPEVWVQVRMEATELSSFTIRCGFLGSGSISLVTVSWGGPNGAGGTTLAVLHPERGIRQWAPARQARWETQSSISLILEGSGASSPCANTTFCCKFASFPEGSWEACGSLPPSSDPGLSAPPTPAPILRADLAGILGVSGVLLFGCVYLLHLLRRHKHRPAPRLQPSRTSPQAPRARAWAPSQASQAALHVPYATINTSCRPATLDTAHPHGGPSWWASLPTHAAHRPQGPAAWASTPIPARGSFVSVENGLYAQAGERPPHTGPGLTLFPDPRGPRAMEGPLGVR

[2] = target: T1, human PVRIG (Poliovirus Receptor …); experiment: FACS on resting human CD4+ T cells
[3] = target: T2, human PVRL2-His (Catalog #2229-N2-050/CF, R&D Systems) (human, UniProt Q92692 32-360); experiment: SPR ProteOn, analyte over Fc-captured ligand; complex kinetics
T2 construct: Bought (R&D Systems); also called His-tagged PVRL2 recombinant protein; PVRL2 (CD112)
T2 sequence (looked up): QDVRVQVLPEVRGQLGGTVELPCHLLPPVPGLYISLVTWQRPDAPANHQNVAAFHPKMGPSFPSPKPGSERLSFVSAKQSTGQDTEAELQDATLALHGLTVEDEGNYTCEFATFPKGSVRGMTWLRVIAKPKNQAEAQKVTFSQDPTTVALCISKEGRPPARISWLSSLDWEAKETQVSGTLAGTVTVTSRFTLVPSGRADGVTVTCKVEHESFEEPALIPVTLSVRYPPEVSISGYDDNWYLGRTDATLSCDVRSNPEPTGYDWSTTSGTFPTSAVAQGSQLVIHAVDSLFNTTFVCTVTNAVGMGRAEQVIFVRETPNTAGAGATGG

[4] = target: T1, human PVRIG (Poliovirus Receptor …); experiment: flow cytometry, Alexa 647 IgG titrated on HEK 293 cells expressing human PVRIG, 1:1 equilibrium fit
[5] = target: T3, L95R/T97I cyno PVRIG ECD with C-terminal 6xHis tag (cynomolgus monkey); experiment: ELISA on coated His-tagged PVRIG variant
T3 chain: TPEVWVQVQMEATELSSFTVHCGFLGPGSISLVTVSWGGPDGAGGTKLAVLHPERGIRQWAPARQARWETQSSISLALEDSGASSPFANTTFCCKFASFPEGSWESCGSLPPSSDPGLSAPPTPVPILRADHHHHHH

[6] = target: T1, human PVRIG (Poliovirus Receptor …); experiment: FACS dose titration on PVRIG over-expressing HEK293 cells
Description: FACS screening of the reformatted antibodies was done similarly to the PPE based screen described herein, except that a dose-dependent titration of the purified antibodies was performed. The human PVRIG over-expressing HEK293 cells, or the un-transfected HEK293 cells, were incubated with varying concentrations (0-10 μg/ml) of the anti PVRIG antibodies or isotype controls in FACS buffer at 4° C. for 60 mins. […] Cells were washed twice and re-suspended in a final volume of 80 μl of FACS buffer and Propidium Iodide (Biolegend cat #421301) diluted 1:1000. Samples were analyzed using an Intellicyt HTFC screening system (Intellicyt). Data was analyzed using FlowJo (DeNovo), exported to Excel (Microsoft) and plotted in GraphPad Prism (GraphPad Software, Inc.).
All unique ELISA and FACS binders were reformatted for expression as human IgG1 molecules in Expi293 cells. […] These reformatted antibodies were tested for retained binding to PVRIG over-expressing HEK293 cells alongside an irrelevant human IgG1 isotype control. All antibodies were also tested against un-transfected HEK293 cells.

B1: Anti-human PVRIG - CPA.7.021, Human IgG2, conjugated to AF-647 (antibody, V domains shown)
VH: EVQLVESGGGVVKPGGSLRLSCAASGFTFGTSSMNWVRQAPGKGLEWVAVISFDGTEIHYADSVKGRFTISRDNSKSTVFLQMNSLRPDDTALYYCAKGSGNIYFYSGMDVWGQGTTVTVSS
VL: DIQMTQSPSTLSASVGDRVTITCRAGQSISGWLAWFQQKPGKAPNLLIYETSTLESGVPSRFSGSGSGTEYTLTISSLQPDDFATYYCQQYYSYPLTFGQGTKVEIK
modifications: Alexa Fluor 647 dye conjugated to the antibody (site not stated).
notes: also called Anti PVRIG-CPA.7.021 ab; CPA.7.021 IgG2 A647
fold staining over isotype control [1]: 2 to 3 fold | fold staining over isotype control [2]: 3 fold

B2: human DNAM-1 fusion protein (human fc, R&D Systems) (Fc fusion, UniProt Q15762 19-247, looked up, not shown: a dimerising Fc or GST)
chain: EEVLWHTSVPFAENMSLECVYPSMGILTQVEWFKIGTQQDSIAIFSPTHGMVIRKPYAERVYFLNSTMASNNMTLFFRNASEDDVGYYSCSLYTYPQGTWQKVIQVVQSDSFEAAVPSNSHIVSEPGKNVTLTCQPQMTWPVQAVRWEKIQPRQIDLLTYCNLVHGRNFTSKFPRQIVSNCSHGRWSVIVIPDVTVSDSGLYRCYLQASAGENETFVMRLTVAEGKTDN
notes: Bought
binding result [3]: binds

B3: CPA.7.021 IgG conjugated with Alexa 647 (antibody, V domains shown)
VH: EVQLVESGGGVVKPGGSLRLSCAASGFTFGTSSMNWVRQAPGKGLEWVAVISFDGTEIHYADSVKGRFTISRDNSKSTVFLQMNSLRPDDTALYYCAKGSGNIYFYSGMDVWGQGTTVTVSS
VL: DIQMTQSPSTLSASVGDRVTITCRAGQSISGWLAWFQQKPGKAPNLLIYETSTLESGVPSRFSGSGSGTEYTLTISSLQPDDFATYYCQQYYSYPLTFGQGTKVEIK
modifications: Alexa Fluor 647 dye conjugated to the antibody (site not stated).
notes: also called Alexa647 labelled CPA.7.021 IgG; conjugated CPA.7.021
Kd [4]: 2.5 nM

B4: CPA.7.021 human IgG1 (antibody, V domains shown)
VH: EVQLVESGGGVVKPGGSLRLSCAASGFTFGTSSMNWVRQAPGKGLEWVAVISFDGTEIHYADSVKGRFTISRDNSKSTVFLQMNSLRPDDTALYYCAKGSGNIYFYSGMDVWGQGTTVTVSS
VL: DIQMTQSPSTLSASVGDRVTITCRAGQSISGWLAWFQQKPGKAPNLLIYETSTLESGVPSRFSGSGSGTEYTLTISSLQPDDFATYYCQQYYSYPLTFGQGTKVEIKR
binding result [5]: binds | Kd [6]: 11.2 nM

B5: CPA.7.034 human IgG1 (antibody, V domains shown)
VH: EVQLVQSGAEVKKPGASVKVSCKVSGYTLTELSMHWVRQAPGKGLEWMGGFDPEDGETIYAQKFQGRVTMTEDTSTDTAYMELSSLRSEDTAVYYCATEDPGPVAGPYYYYGMDVWGQGTTVTVSS
VL: DVVMTQSPLVLPVTPGEPASISCRSSQSLLYINGYHYLDWYVQRPGQSPQLLIFLGSTRASGVPDRFSGSGSGTDFTLEISKVEAEDVGIYFCMQALQTPPTFGGGTKVEIKR
notes: also called CPA.7.34
Kd [6]: 14.2 nM

B6: CPA.7.036 human IgG1 (antibody, V domains shown)
VH: QVQLVQSGAEVKKPGSSVKVSCKASGGTFSSSAISWVRQAPGQGFEWMGGIIPIYGITDYAQKFQGRVTITTDESTSTAYMELSSLTSEDTAVYYCARDDTARRVRGVPYYYYYAMDVWGQGTTVTVSS
VL: DIVMTQTPLSLPVTPGEPASISCRPSQSLLDSDDGNTYLDWYLQKPGQSPQLLIHTLSYRASGVPDRFSGSGSGTDFTLKISRVEAEDVGVYYCMQRLQFPLTFGGGTKVEIKR
notes: also called CPA.7.36
Kd [6]: 6 nM

B7: CPA.7.049 human IgG1 (antibody, V domains shown)
VH: QMQLVQSGAEVKKPGSSVKVSCKASGGTFSSSAISWVRQAPGQGFEWMGGIIPIYGITDYAQKFQGRVTITTDESTSTAYMELSSLTSEDTAVYYCARDDTARRVRGVPYYYYYAMDVWGQGTTVTVSS
VL: DIVMTQTPLSLPVTPGEPASMSCRSSRSLLDSDDGNTHLDWYLQKPGQSPQLLIQSLSYRASGVPDRFSGSGSGTDFTLEISRVEAEDVGIYYCMQRKEFPLTFGGGTKVEIKR
Kd [6]: 19.9 nM

B8: CPA.7.038 human IgG1 (antibody, V domains shown)
VH: QVQLVQSGAEVKKPGSSVKVSCKASGGTFSSSAISWVRQAPGQGFEWMGGIIPIYGITDYAQKFQGRVTITTDESTSTAYMELSSLTSEDTAVYYCARDDTARRVRGVPYYYYYAMDVWGQGTTVTVSS
VL: DIQMTQSPSSLSASVGDRVTITCQASRDISDSLSWYQQKPGKAPKLLIFDASNLKTGVSSRFSGSGSGTDFTFTISSLQPEDIATYYCHQYDNLPLTFGGGTKVEIKR
Kd [6]: 20.3 nM

B9: CPA.7.050 human IgG1 (antibody, V domains shown)
VH: EVQLVQSGAEVKKPGSSVKVSCKASGGTFSSYAISWVRQAPGQGLEWMGGIIPIFGTANYAQKFQGRVTITADKSTSTAYMELSSLRSEDTAVYYCARGPWYYDSSGYSSYAYYMDVWGQGTTVTVSS
VL: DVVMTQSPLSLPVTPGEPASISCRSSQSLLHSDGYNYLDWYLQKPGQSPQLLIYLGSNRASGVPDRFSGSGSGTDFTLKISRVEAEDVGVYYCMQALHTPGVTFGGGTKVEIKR
notes: also called CPA.7.50
Kd [6]: 68.3 nM

— US20200385445A1 (COMPUGEN, published 2020)
